Measurements as given in paper PMC9758056, “Structural basis for Parkinson’s disease-linked LRRK2’s binding to microtubules” (Nature Structural & Molecular Biology, 2022).

Biological target: the molecule itself
Assay: cryo-EM imaging with calculated diffraction patterns (layer lines); tubulin or microtubules with LRRK2^RCKW (WT or mutant), with or without MLi-2; layer lines in diffraction patterns calculated from images of single filaments, 2D class averages

Row | Protein | binding result
1 | LRRK2^RCKW-S2345D (domain or fragment, human, LRRK2, human, carboxy-terminal catalytic half with the ROC, COR, kinase and WD40 domains; also called p.S2345D; WD40 dimerization interface mutant; source: Sf9 insect cells, baculovirus, purified (Ni-NTA, SP Sepharose, TEV cleavage, second Ni-NTA, S200 gel filtration); not shown: His6-Z, N-terminal, cleaved) KKAVPYNRMKLMIVGNTGSGKTTLLQQLMKTKKSDLGMQSATVGIDVKDWPIQIRDKRKRDLVLNVWDFAGREEFYSTHPHFMTQRALYLAVYDLSKGQAEVDAMKPWLFNIKARASSSPVILVGTHLDVSDEKQRKACMSKITKELLNKRGFPAIRDYHFVNATEESDALAKLRKTIINESLNFKIRDQLVVGQLIPDCYVELEKIILSERKNVPIEFPVIDRKRLLQLVRENQLQLDENELPHAVHFLNESGVLLHFQDPALQLSDLYFVEPKWLCKIMAQILTVKVEGCPKHPKGIISRRDVEKFLSKKRKFPKNYMSQYFKLLEKFQIALPIGEEYLLVPSSLSDHRPVIELPHCENSEIIIRLYEMPYFPMGFWSRLINRLLEISPYMLSGRERALRPNRMYWRQGIYLNWSPEAYCLVGSEVLDNHPESFLKITVPSCRKGCILLGQVVDHIDSLMEEWFPGLLEIDICGEGETLLKKWALYSFNDGEEHQKILLDDLMKKAEEGDLLVNPDQPRLTIPISQIAPDLILADLPRNIMLNNDELEFEQAPEFLLGDGSFGSVYRAAYEGEEVAVKIFNKHTSLRLLRQELVVLCHLHHPSLISLLAAGIRPRMLVMELASKGSLDRLLQQDKASLTRTLQHRIALHVADGLRYLHSAMIIYRDLKPHNVLLFTLYPNAAIIAKIADYGIAQYCCRMGIKTSEGTPGFRAPEVARGNVIYNQQADVYSFGLLLYDILTTGGRIVEGLKFPNEFDELEIQGKLPDPVKEYGCAPWPMVEKLIKQCLKENPQERPTSAQVFDILNSAELVCLTRRILLPKNVIVECMVATHHNSRNASIWLGCGHTDRGQLSFLDLNTEGYTSEEVADSRILCLALVHLPVEKESWIVSGTQSGTLLVINTEDGKKRHTLEKMTDSVTCLYCNSFSKQSKQKNFLLVGTADGKLAIFEDKTVKLKGAAPLKILNIGNVSTPLMCLSESTNSTERNVMWGGCGTKIFSFSNDFTIQKLIETRTSQLFDYAAFSDSNIITVVVDTALYIAKQNSPVVEVWDKKTEKLCGLIDCVHFLREVMVKENKESKHKMSYSGRVKTLCLQKNTALWIGTGGGHILLLDLSTRRLIRVIYNFCNSVRVMMTAQLGSLKNVMLVLGYNRKNTEGTQKQKEIQSCLTVWDINLPHEVQNLEKHIEVRKELAEKMRRTSVE | binds
2 | LRRK2^RCKW-G2019S (domain or fragment, human, LRRK2, human, carboxy-terminal catalytic half with the ROC, COR, kinase and WD40 domains, with the PD-linked mutation p.G2019S; also called LRRK2^RCKW carrying p.G2019S; source: Sf9 insect cells, baculovirus, purified (Ni-NTA, SP Sepharose, TEV cleavage, second Ni-NTA, S200 gel filtration); not shown: His6-Z, N-terminal, cleaved) KKAVPYNRMKLMIVGNTGSGKTTLLQQLMKTKKSDLGMQSATVGIDVKDWPIQIRDKRKRDLVLNVWDFAGREEFYSTHPHFMTQRALYLAVYDLSKGQAEVDAMKPWLFNIKARASSSPVILVGTHLDVSDEKQRKACMSKITKELLNKRGFPAIRDYHFVNATEESDALAKLRKTIINESLNFKIRDQLVVGQLIPDCYVELEKIILSERKNVPIEFPVIDRKRLLQLVRENQLQLDENELPHAVHFLNESGVLLHFQDPALQLSDLYFVEPKWLCKIMAQILTVKVEGCPKHPKGIISRRDVEKFLSKKRKFPKNYMSQYFKLLEKFQIALPIGEEYLLVPSSLSDHRPVIELPHCENSEIIIRLYEMPYFPMGFWSRLINRLLEISPYMLSGRERALRPNRMYWRQGIYLNWSPEAYCLVGSEVLDNHPESFLKITVPSCRKGCILLGQVVDHIDSLMEEWFPGLLEIDICGEGETLLKKWALYSFNDGEEHQKILLDDLMKKAEEGDLLVNPDQPRLTIPISQIAPDLILADLPRNIMLNNDELEFEQAPEFLLGDGSFGSVYRAAYEGEEVAVKIFNKHTSLRLLRQELVVLCHLHHPSLISLLAAGIRPRMLVMELASKGSLDRLLQQDKASLTRTLQHRIALHVADGLRYLHSAMIIYRDLKPHNVLLFTLYPNAAIIAKIADYSIAQYCCRMGIKTSEGTPGFRAPEVARGNVIYNQQADVYSFGLLLYDILTTGGRIVEGLKFPNEFDELEIQGKLPDPVKEYGCAPWPMVEKLIKQCLKENPQERPTSAQVFDILNSAELVCLTRRILLPKNVIVECMVATHHNSRNASIWLGCGHTDRGQLSFLDLNTEGYTSEEVADSRILCLALVHLPVEKESWIVSGTQSGTLLVINTEDGKKRHTLEKMTDSVTCLYCNSFSKQSKQKNFLLVGTADGKLAIFEDKTVKLKGAAPLKILNIGNVSTPLMCLSESTNSTERNVMWGGCGTKIFSFSNDFTIQKLIETRTSQLFSYAAFSDSNIITVVVDTALYIAKQNSPVVEVWDKKTEKLCGLIDCVHFLREVMVKENKESKHKMSYSGRVKTLCLQKNTALWIGTGGGHILLLDLSTRRLIRVIYNFCNSVRVMMTAQLGSLKNVMLVLGYNRKNTEGTQKQKEIQSCLTVWDINLPHEVQNLEKHIEVRKELAEKMRRTSVE | binds
